The assay deals with T1, FtsZ (E. coli, UniProt P0A9A6 1-383).
T1 construct: FtsZ, tubulin homologue of the Z-ring; the species is told only of the protein in general; also called purified FtsZ
T1 sequence (looked up): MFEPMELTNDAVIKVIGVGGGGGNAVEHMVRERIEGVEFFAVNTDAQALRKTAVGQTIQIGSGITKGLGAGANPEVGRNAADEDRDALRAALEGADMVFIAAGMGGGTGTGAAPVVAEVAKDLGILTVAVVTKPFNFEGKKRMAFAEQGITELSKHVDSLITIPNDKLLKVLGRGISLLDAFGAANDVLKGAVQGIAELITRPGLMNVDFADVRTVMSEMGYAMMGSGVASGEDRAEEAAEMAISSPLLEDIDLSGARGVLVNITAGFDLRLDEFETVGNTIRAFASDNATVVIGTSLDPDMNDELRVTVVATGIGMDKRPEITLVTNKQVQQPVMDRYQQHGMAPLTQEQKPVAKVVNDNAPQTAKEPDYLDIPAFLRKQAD
Nature of the assay: pull-down; His10-FtsKN bound to 100 uL Ni2+ IMAC resin (bait); 320 ug purified FLAG-RlpA or 250 ug purified FtsZ (prey); 4 C overnight; three washes in 20 mM Tris-HCl pH 7.0, 100 mM NaCl, 25 mM imidazole, 0.05% LDAO; elution with 1 M imidazole; Western blot; empty resin as control. Particulars: both partners purified.

B1: His10-FtsKN(220), N-terminal domain of the cell division protein FtsK (amino acids 1-220) (domain or fragment, E. coli, UniProt P46889 1-220, looked up)
chain: MSQEYIEDKEVTLTKLSSGRRLLEALLILIVLFAVWLMAALLSFNPSDPSWSQTAWHEPIHNLGGMPGAWLADTLFFIFGVMAYTIPVIIVGGCWFAWRHQSSDEYIDYFAVSLRIIGVLALILTSCGLAAINADDIWYFASGGVIGSLLSTTLQPLLHSSGGTIALLCVWAAGLTLFTGWSWVTIAEKLGGWILNILTFASNRTRRDDTWVDEDEYEDD
notes: FtsK of E. coli, N-terminal membrane anchor domain, amino acids 1-220 of the 1329 amino acid protein; also called WT FtsKN; not shown: His10, N-terminal, kept
For the molecule B1, the binding result is “binds”.

Values taken from article PMC6113214, “Outer membrane lipoprotein RlpA is a novel periplasmic interaction partner of the cell division protein FtsK in Escherichia coli” (Scientific Reports, 2018).
